# Data: patent US20150344570A1 (published 2015)
# T1: human FcγRIIb extracellular domain with C-terminal His tag (human, UniProt P31994 43-217)
# T1 construct: extracellular domain; also called FcgRIIb; 2b; not shown: His tag attached to the C terminus
# T1 sequence (looked up): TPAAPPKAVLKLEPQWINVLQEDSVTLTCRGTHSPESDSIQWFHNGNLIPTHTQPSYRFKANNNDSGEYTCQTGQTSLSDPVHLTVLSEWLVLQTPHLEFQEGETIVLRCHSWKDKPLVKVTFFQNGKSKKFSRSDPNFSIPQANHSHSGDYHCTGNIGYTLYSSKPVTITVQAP
# Molecular target: T1, human FcγRIIb extracellular domain with …
# Assay: SPR (Biacore T100), antibody captured on antigen peptide chip, FcγRIIb as analyte; relative binding
# Method: Analysis of interaction between objective antibody and the FcγR was carried out using Biacore T100 (GE Healthcare). HBS-EP+ (GE Healthcare) was used as the running buffer, and the measurement temperature was set to 25° C. Chips produced by immobilizing the antigen peptide by the amine coupling method to a Series S Sencor Chip CM5 (GE Healthcare), or alternatively, chips produced by allowing preliminarily biotinylated antigen peptides to interact with and immobilize onto a Series S Sensor Chip SA (certified) (GE Healthcare) were used. Antibodies of interest were captured onto an antigen peptide-immobilized chip, and allowed to interact to each FcγR diluted with running buffer. To regenerate and repeatedly use the chip, the antibodies captured on the chip were washed off by reacting 10 mM glycine-HCl, pH 1.5.
row,Ho/Con_2b,Binder
1,188 % of control GpH7-B3/GpL16-k0 (=100),"GpH7-B3 variant L328_07I/GpL16-k0 (Ho Ab) (antibody, human IgG1, kappa, Anti-glypican-3 IgG1; mutation in both H chains; also called L328I homodimerized antibody) heavy: not shown light: DIVMTQSPLSLPVTPGEPASISCQASESLVHSNRNTYLHWYLQKPGQSPQLLIYKVSNRFSGVPDRFSGSGSGTDFTLKISRVEAEDVGVYYCSQNTHVPPTFGQGTKVEIERTVAAPSVFIFPPSDEQLKSGTASVVCLLNNFYPREAKVQWKVDNALQSGNSQESVTEQDSKDSTYSLSSTLTLSKADYEKHKVYACEVTHQGLSSPVTKSFNRGEC"
2,274 % of control GpH7-B3/GpL16-k0 (=100),"GpH7-B3 variant S267_02A/GpL16-k0 (Ho Ab) (antibody, human IgG1, kappa, Anti-glypican-3 IgG1; mutation in both H chains; also called S267A homodimerized antibody) heavy: not shown light: DIVMTQSPLSLPVTPGEPASISCQASESLVHSNRNTYLHWYLQKPGQSPQLLIYKVSNRFSGVPDRFSGSGSGTDFTLKISRVEAEDVGVYYCSQNTHVPPTFGQGTKVEIERTVAAPSVFIFPPSDEQLKSGTASVVCLLNNFYPREAKVQWKVDNALQSGNSQESVTEQDSKDSTYSLSSTLTLSKADYEKHKVYACEVTHQGLSSPVTKSFNRGEC"
3,224 % of control GpH7-B3/GpL16-k0 (=100),"GpH7-B3 variant S239_09D/GpL16-k0 (Ho Ab) (antibody, human IgG1, kappa, Anti-glypican-3 IgG1; mutation in both H chains; also called S239D homodimerized antibody) heavy: not shown light: DIVMTQSPLSLPVTPGEPASISCQASESLVHSNRNTYLHWYLQKPGQSPQLLIYKVSNRFSGVPDRFSGSGSGTDFTLKISRVEAEDVGVYYCSQNTHVPPTFGQGTKVEIERTVAAPSVFIFPPSDEQLKSGTASVVCLLNNFYPREAKVQWKVDNALQSGNSQESVTEQDSKDSTYSLSSTLTLSKADYEKHKVYACEVTHQGLSSPVTKSFNRGEC"
4,213 % of control GpH7-B3/GpL16-k0 (=100),"GpH7-B3 variant S267_07I/GpL16-k0 (Ho Ab) (antibody, human IgG1, kappa, Anti-glypican-3 IgG1; mutation in both H chains; also called S267I homodimerized antibody) heavy: not shown light: DIVMTQSPLSLPVTPGEPASISCQASESLVHSNRNTYLHWYLQKPGQSPQLLIYKVSNRFSGVPDRFSGSGSGTDFTLKISRVEAEDVGVYYCSQNTHVPPTFGQGTKVEIERTVAAPSVFIFPPSDEQLKSGTASVVCLLNNFYPREAKVQWKVDNALQSGNSQESVTEQDSKDSTYSLSSTLTLSKADYEKHKVYACEVTHQGLSSPVTKSFNRGEC"
5,113 % of control GpH7-B3/GpL16-k0 (=100),"GpH7-B3 variant P271_08L/GpL16-k0 (Ho Ab) (antibody, human IgG1, kappa, Anti-glypican-3 IgG1; mutation in both H chains; also called P271L homodimerized antibody) heavy: not shown light: DIVMTQSPLSLPVTPGEPASISCQASESLVHSNRNTYLHWYLQKPGQSPQLLIYKVSNRFSGVPDRFSGSGSGTDFTLKISRVEAEDVGVYYCSQNTHVPPTFGQGTKVEIERTVAAPSVFIFPPSDEQLKSGTASVVCLLNNFYPREAKVQWKVDNALQSGNSQESVTEQDSKDSTYSLSSTLTLSKADYEKHKVYACEVTHQGLSSPVTKSFNRGEC"
6,396 % of control GpH7-B3/GpL16-k0 (=100),"GpH7-B3 variant S267_10E/GpL16-k0 (Ho Ab) (antibody, human IgG1, kappa, Anti-glypican-3 IgG1; mutation in both H chains; also called S267E homodimerized antibody) heavy: not shown light: DIVMTQSPLSLPVTPGEPASISCQASESLVHSNRNTYLHWYLQKPGQSPQLLIYKVSNRFSGVPDRFSGSGSGTDFTLKISRVEAEDVGVYYCSQNTHVPPTFGQGTKVEIERTVAAPSVFIFPPSDEQLKSGTASVVCLLNNFYPREAKVQWKVDNALQSGNSQESVTEQDSKDSTYSLSSTLTLSKADYEKHKVYACEVTHQGLSSPVTKSFNRGEC"
7,272 % of control GpH7-B3/GpL16-k0 (=100),"GpH7-B3 variant L328_15Y/GpL16-k0 (Ho Ab) (antibody, human IgG1, kappa, Anti-glypican-3 IgG1; mutation in both H chains; also called L328Y homodimerized antibody) heavy: not shown light: DIVMTQSPLSLPVTPGEPASISCQASESLVHSNRNTYLHWYLQKPGQSPQLLIYKVSNRFSGVPDRFSGSGSGTDFTLKISRVEAEDVGVYYCSQNTHVPPTFGQGTKVEIERTVAAPSVFIFPPSDEQLKSGTASVVCLLNNFYPREAKVQWKVDNALQSGNSQESVTEQDSKDSTYSLSSTLTLSKADYEKHKVYACEVTHQGLSSPVTKSFNRGEC"
8,229 % of control GpH7-B3/GpL16-k0 (=100),"GpH7-B3 variant P271_01G/GpL16-k0 (Ho Ab) (antibody, human IgG1, kappa, Anti-glypican-3 IgG1; mutation in both H chains; also called P271G homodimerized antibody) heavy: not shown light: DIVMTQSPLSLPVTPGEPASISCQASESLVHSNRNTYLHWYLQKPGQSPQLLIYKVSNRFSGVPDRFSGSGSGTDFTLKISRVEAEDVGVYYCSQNTHVPPTFGQGTKVEIERTVAAPSVFIFPPSDEQLKSGTASVVCLLNNFYPREAKVQWKVDNALQSGNSQESVTEQDSKDSTYSLSSTLTLSKADYEKHKVYACEVTHQGLSSPVTKSFNRGEC"
9,113 % of control GpH7-B3/GpL16-k0 (=100),"GpH7-B3 variant P331_04F/GpL16-k0 (Ho Ab) (antibody, human IgG1, kappa, Anti-glypican-3 IgG1; mutation in both H chains; also called P331F homodimerized antibody) heavy: not shown light: DIVMTQSPLSLPVTPGEPASISCQASESLVHSNRNTYLHWYLQKPGQSPQLLIYKVSNRFSGVPDRFSGSGSGTDFTLKISRVEAEDVGVYYCSQNTHVPPTFGQGTKVEIERTVAAPSVFIFPPSDEQLKSGTASVVCLLNNFYPREAKVQWKVDNALQSGNSQESVTEQDSKDSTYSLSSTLTLSKADYEKHKVYACEVTHQGLSSPVTKSFNRGEC"
10,235 % of control GpH7-B3/GpL16-k0 (=100),"GpH7-B3 variant P238_08L/GpL16-k0 (Ho Ab) (antibody, human IgG1, kappa, Anti-glypican-3 IgG1; mutation in both H chains; also called P238L homodimerized antibody) heavy: not shown light: DIVMTQSPLSLPVTPGEPASISCQASESLVHSNRNTYLHWYLQKPGQSPQLLIYKVSNRFSGVPDRFSGSGSGTDFTLKISRVEAEDVGVYYCSQNTHVPPTFGQGTKVEIERTVAAPSVFIFPPSDEQLKSGTASVVCLLNNFYPREAKVQWKVDNALQSGNSQESVTEQDSKDSTYSLSSTLTLSKADYEKHKVYACEVTHQGLSSPVTKSFNRGEC"
